Measured values taken from patent publication US20220380459A1 (DRAGONFLY THERAPEUTICS, published 2022).
Read-outs that look alike come from different tables or passages of the source.

T1: human NKG2D expressed on cells (human, UniProt P26718 1-216)
T1 construct: whole, on cells; also called hNKG2D; EL4-hNKG2D
T1 sequence (looked up): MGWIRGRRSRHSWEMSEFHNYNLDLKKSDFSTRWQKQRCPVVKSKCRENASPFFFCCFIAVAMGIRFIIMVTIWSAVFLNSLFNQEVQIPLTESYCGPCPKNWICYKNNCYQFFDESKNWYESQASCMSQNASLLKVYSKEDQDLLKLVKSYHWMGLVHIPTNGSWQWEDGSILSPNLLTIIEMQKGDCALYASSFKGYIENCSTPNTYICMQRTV


What was measured:
[1] = target: T2, human CD33 expressed on cells (human, UniProt P20138 18-364); experiment: flow cytometry on Molm-13 cells, fluorophore-conjugated anti-human IgG secondary antibody, MFI as fold over background (FOB)
T2 construct: endogenous CD33 of human AML cell lines and blood monocytes; also called cell-expressed CD33 (Molm-13, Mv4-11, monocytes)
Description: (§1) The cells were analyzed by flow cytometry, and fold over background values were calculated by normalizing binding MFI to the MFI of a control group in which the cells were incubated with the secondary antibody only.

[2] = target: T1, human NKG2D expressed on cells; experiment: flow cytometry on EL4-hNKG2D cells
Description: EL4-hNKG2D cells were incubated with the diluted TriNKET or mAb solutions. Binding of the TriNKET or mAb to the EL4 cells was detected using a fluorophore-conjugated anti-human IgG secondary antibody. The cells were analyzed by flow cytometry, and fold over background values were calculated by normalizing binding MFI to the MFI of a control group in which the cells were incubated with the secondary antibody only.

[3] = target: T2, human CD33 expressed on cells; experiment: flow cytometry on Mv4-11 cells, fluorophore-conjugated anti-human IgG secondary antibody, MFI as fold over background (FOB)
Description: as §1

[4] = target: T3, human CD33 extracellular domain (human, UniProt P20138 18-259); experiment: SPR, Fab captured, 37C
T3 construct: soluble monomeric ECD; also called human CD33 ECD; hCD33
Description: (§2) Kinetics and affinity of a series of Fab fragments of anti-CD33 antibodies with different CD33 variants (human CD33 ECD, cyno CD33 ECD, V-domain of human CD33, C-domain or human CD33 and selected CD33 SNPs) were assessed by surface plasmon resonance using Biacore 8K instrument (GE Healthcare). Anti-Fab antibody was immobilized on a CMS chip using standard amine coupling chemistry. CD33 FABs were captured on the anti-Fab chip at a density of ˜100 RU. Solutions containing different concentrations of soluble monomeric CD33 or its domains were injected over the captured FABs and control surfaces at 30 μl/min at 37° C. Surfaces were regenerated between cycles by quick injection of 10 mM glycine, pH 1.8. To obtain kinetic rate constants double-referenced data were fit to a 1:1 interaction model using Biacore 8K Evaluation software (GE Healthcare). The equilibrium binding constant KD was determined by the ratio of binding rate constants kd/kₐ.

[5] = target: T4, C domain of human CD33 (human, UniProt P20138 140-259, limits assumed); experiment: SPR, Fab captured, 37C
T4 construct: recombinant C domain
Description: as §2

[6] = target: T5, V domain of human CD33 (human, UniProt P20138 18-139, limits assumed); experiment: SPR, Fab captured, 37C
T5 construct: recombinant, fully glycosylated V domain; also called Human CD33 V domain
Description: as §2

[7] = target: T3, human CD33 extracellular domain; experiment: SPR, Fab captured, 37C; remark: listed apart in the source
Description: as §2
(§3) Affinity of 29 Fab fragments binding to human and cyno CD33 ECD were assayed by Biacore analysis.

[8] = target: T6, cyno CD33 extracellular domain (Cynomolgus/Rhesus (cyno)); experiment: SPR, Fab captured, 37C;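 also: surface plasmon resonance with Fabs captured on anti-Fab surface, soluble monomeric CD33 as analyte at several concentrations, double-referenced 1:1 model fit, KD as koff/kon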
T6 construct: soluble monomeric ECD; also called cyno CD33 ECD
Description: as §2, §3

[9] = target: T3, human CD33 extracellular domain; experiment: SPR, Fab captured, 37C; remark: listed apart in the source
Description: as §2, §3

[10] = target: T7, deglycosylated V domain of human CD33 (human, UniProt P20138 18-139, limits assumed, N-glycans removed by PNGase); experiment: SPR, Fab captured, 37C
T7 construct: V domain deglycosylated by PNGase before testing; also called deglycosylated V CD33
Description: as §2
(§4) The ability of anti-CD33 antibodies to recognize glycosylated CD33 was assayed. […] De-glycosylation status was confirmed by a shift on SDS-PAGE and MS.

[11] = target: T5, V domain of human CD33; experiment: SPR, Fab captured, 37C; remark: listed apart in the source
Description: as §2, §4

[12] = target: T3, human CD33 extracellular domain; experiment: SPR, Fab captured, 37C; remark: listed apart in the source
[13] = target: T5, V domain of human CD33; experiment: SPR, Fab captured, 37C; remark: listed apart in the source
[14] = target: T3, human CD33 extracellular domain; experiment: SPR, Fab captured, 37C; remark: listed apart in the source
Description: as §2

[15] = target: T4, C domain of human CD33; experiment: SPR, Fab captured, 37C; remark: listed apart in the source
Description: as §2

EC50 (read off the curve) [1]	EC50 (read off the curve) [3]	Kd [7]	koff [7]	kon [7]	binding result [8]	Kd [9]	koff [9]	kon [9]	Kd [12]	koff [12]	kon [12]	Binder	further results
~2 µg/mL	~0.3 µg/mL											I07-F405L mAb (antibody, human IgG1, kappa, V domains shown, Fc variant of I07 with F405L (EU); a Lys may optionally stand at the C-terminus of the heavy chain) VH: EVQLVESGGGLVQPGGSLRLSCAASGFTFGSYWMSWVRQAPGKGLEWVATIKQDGSEKSYVDSVKGRFTISRDNAKNSLYLQMNSLRAEDTAVYYCARPLNAGELDVWGQGTMVTVSS VL: DIQMTQSPSTLSASVGDRVTITCRASQSISSWLAWYQQKPGKAPKLLIYEASSLESGVPSRFSGSGSGTEFTLTISSLQPDDFATYYCQQSQSYPPITFGGGTKVEIKR	binding result [2]: no binding
~5 µg/mL	~2 µg/mL											A49-F3′-TriNKET-I07 (bispecific antibody, human IgG1, kappa, trispecific: I07 scFv-Fc (CD33), A49 VH-CH1-Fc and A49 VL-CL (NKG2D Fab), heterodimeric IgG1 Fc (CD16); also called TriNKET derivative of I07 mAb) DIQMTQSPSTLSASVGDRVTITCRASQSISSWLAWYQQKPGKAPKLLIYEASSLESGVPSRFSGSGSGTEFTLTISSLQPDDFATYYCQQSQSYPPITFGCGTKVEIKGGGGSGGGGSGGGGSGGGGSEVQLVESGGGLVQPGGSLRLSCAASGFTFGSYWMSWVRQAPGKCLEWVATIKQDGSEKSYVDSVKGRFTISRDNAKNSLYLQMNSLRAEDTAVYYCARPLNAGELDVWGQGTMVTVSSASDKTHTCPPCPAPELLGGPSVFLFPPKPKDTLMISRTPEVTCVVVDVSHEDPEVKFNWYVDGVEVHNAKTKPREEQYNSTYRVVSVLTVLHQDWLNGKEYKCKVSNKALPAPIEKTISKAKGQPREPRVYTLPPCRDELTKNQVSLTCLVKGFYPSDIAVEWESNGQPENNYKTTPPVLVSDGSFTLYSKLTVDKSRWQQGNVFSCSVMHEALHNHYTQKSLSLSPG heavy: EVQLVESGGGLVKPGGSLRLSCAASGFTFSSYSMNWVRQAPGKGLEWVSSISSSSSYIYYADSVKGRFTISRDNAKNSLYLQMNSLRAEDTAVYYCARGAPMGAAAGWFDPWGQGTLVTVSSASTKGPSVFPLAPSSKSTSGGTAALGCLVKDYFPEPVTVSWNSGALTSGVHTFPAVLQSSGLYSLSSVVTVPSSSLGTQTYICNVNHKPSNTKVDKKVEPKSCDKTHTCPPCPAPELLGGPSVFLFPPKPKDTLMISRTPEVTCVVVDVSHEDPEVKFNWYVDGVEVHNAKTKPREEQYNSTYRVVSVLTVLHQDWLNGKEYKCKVSNKALPAPIEKTISKAKGQPREPQVCTLPPSRDELTENQVSLTCLVKGFYPSDIAVEWESNGQPENNYKTTPPVLDSDGSFFLYSWLTVDKSRWQQGNVFSCSVMHEALHNHYTQKSLSLSPG light: DIQMTQSPSSVSASVGDRVTITCRASQGISSWLAWYQQKPGKAPKLLIYAASSLQSGVPSRFSGSGSGTDFTLTISSLQPEDFATYYCQQGVSFPRTFGGGTKVEIKRTVAAPSVFIFPPSDEQLKSGTASVVCLLNNFYPREAKVQWKVDNALQSGNSQESVTEQDSKDSTYSLSSTLTLSKADYEKHKVYACEVTHQGLSSPVTKSFNRGEC	
		0.55 nM	0.000417 s⁻¹	756000 M⁻¹ s⁻¹	no binding (tested: 100 nM)	0.55 nM	0.000417 s⁻¹	756000 M⁻¹ s⁻¹	0.55 nM	0.000417 s⁻¹	756000 M⁻¹ s⁻¹	ADI-11801 Fab (Fab, V domains shown, Fab fragment; also called Ab4) VH: QVQLVQSGAEVKKPGASVKVSCKASGYTFSDYYMHWVRQAPGQGLEWMGMINPSWGSTSYAQKFQGRVTMTRDTSTSTVYMELSSLRSEDTAVYYCAREAADGFVGERYFDLWGRGTLVTVSS VL: not shown	Kd [4]: 0.55 nM; koff [4]: 0.000417 s⁻¹; kon [4]: 756000 M⁻¹ s⁻¹; binding result [5]: no binding; Kd [6]: 0.69 nM; koff [6]: 0.00125 s⁻¹; kon [6]: 1.8e+06 M⁻¹ s⁻¹; Kd [10]: 0.55 nM; koff [10]: 0.00115 s⁻¹; kon [10]: 2.1e+06 M⁻¹ s⁻¹; Kd [11]: 0.69 nM; koff [11]: 0.00125 s⁻¹; kon [11]: 1.8e+06 M⁻¹ s⁻¹; Kd [13]: 0.69 nM; koff [13]: 0.00125 s⁻¹; kon [13]: 1.8e+06 M⁻¹ s⁻¹
		0.23 nM	7.91e-05 s⁻¹	339000 M⁻¹ s⁻¹	no binding (tested: 100 nM)	0.23 nM	7.91e-05 s⁻¹	339000 M⁻¹ s⁻¹	0.23 nM	7.91e-05 s⁻¹	339000 M⁻¹ s⁻¹	ADI-11815 Fab (Fab, V domains shown, Fab fragment; also called Ab7) VH: QVQLVQSGAEVKKPGASVKVSCKASGYTFGTYYMHWVRQAPGQGLEWMGIINPSRGSTVYAQKFQGRVTMTRDTSTSTVYMELSSLRSEDTAVYYCARGAGYDDEDMDVWGKGTTVTVSS VL: DIQMTQSPSSVSASVGDRVTITCRASQGIDSWLAWYQQKPGKAPKLLIYAASSLQSGVPSRFSGSGSGTDFTLTISSLQPEDFATYYCQQAHSYPLTFGGGTKVEIK	binding result [13]: no binding; Kd [14]: 0.23 nM; koff [14]: 7.91e-05 s⁻¹; kon [14]: 339000 M⁻¹ s⁻¹; binding result [15]: no binding
